In the supplement of paper PMC10567573:

B1: ZNF193 (parent)
chain: QKRYHCKECGKVFSQSAGLIQHQR

Variants of: B1
Test: protein stability index of a GFP-peptide fusion (GPS, HEK-293T) (PSI 1-6); higher = more stable
Details: c terminus: a fixed tail appended
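Note: lentivirally expressed fusions sorted by FACS into six bins by GFP to DsRed ratio, PSI derived from sequencing read proportions per bin multiplied by bin number.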

Row | Variant | protein stability index
1 | QKRYHCKECGKVFSQHAGLIQHQR [S16H] | 3.77
2 | QKRYHCKECGKVFSQMAGLIQHQR [S16M] | 3.72
3 | QKRYHCKECGKVFSQQAGLIQHQR [S16Q] | 3.88
4 | QKRYHCKECGKVFSQKAGLIQHQR [S16K] | 3.53
5 | QKRYHCKECGKVFSQEAGLIQHQR [S16E] | 4.39
6 | QKRYHCKECGKVFSQCAGLIQHQR [S16C] | 2.9
7 | QKRYHCKECGKVFSQFAGLIQHQR [S16F] | 2.86
8 | QKRYHCKECGKVFSQVAGLIQHQR [S16V] | 2.62
9 | QKRYHCKECGKVFSQYAGLIQHQR [S16Y] | 3.8
10 | QKRYHCKECGKVFSQRAGLIQHQR [S16R] | 3.97
11 | QKRYHCKECGKVFSQNAGLIQHQR [S16N] | 3.11
12 | QKRYHCKECGKVFSQPAGLIQHQR [S16P] | 3.44
13 | QKRYHCKECGKVFSQTAGLIQHQR [S16T] | 2.27
14 | QKRYHCKECGKVFSQWAGLIQHQR [S16W] | 2.99
15 | QKRYHCKECGKVFSQGAGLIQHQR [S16G] | 2.7
16 | QKRYHCKECGKVFSQAAGLIQHQR [S16A] | 3.71
17 | QKRYHCKECGKVFSQIAGLIQHQR [S16I] | 2.98
18 | QKRYHCKECGKVFSQLAGLIQHQR [S16L] | 3.59
19 | QKRYHCKECGKVFSQDAGLIQHQR [S16D] | 2.47
20 | QKRYHCKECGKVFSQSACLIQHQR [G18C] | 2.7
21 | QKRYHCKECGKVFSQSANLIQHQR [G18N] | 2.32
22 | QKRYHCKECGKVFSQSAVLIQHQR [G18V] | 2.09
23 | QKRYHCKECGKVFSQSATLIQHQR [G18T] | 2.65
24 | QKRYHCKECGKVFSQSALLIQHQR [G18L] | 3.01

Row | Variant | protein stability index
25 | QKRYHCKECGKVFSQSAFLIQHQR [G18F] | 2.26
26 | QKRYHCKECGKVFSQSASLIQHQR [G18S] | 2.22
27 | QKRYHCKECGKVFSQSAELIQHQR [G18E] | 4.13
28 | QKRYHCKECGKVFSQSAQLIQHQR [G18Q] | 3.55
29 | QKRYHCKECGKVFSQSAHLIQHQR [G18H] | 2.84
30 | QKRYHCKECGKVFSQSAILIQHQR [G18I] | 2.4
31 | QKRYHCKECGKVFSQSARLIQHQR [G18R] | 2.86
32 | QKRYHCKECGKVFSQSAKLIQHQR [G18K] | 2.8
33 | QKRYHCKECGKVFSQSAPLIQHQR [G18P] | 2.29
34 | QKRYHCKECGKVFSQSADLIQHQR [G18D] | 4.32
35 | QKRYHCKECGKVFSQSAYLIQHQR [G18Y] | 2.31
36 | QKRYHCKECGKVFSQSAMLIQHQR [G18M] | 2.06
37 | QKRYHCKECGKVFSQSAWLIQHQR [G18W] | 1.68
38 | QKRYHCKECGKVFSQSAALIQHQR [G18A] | 3.12
39 | QKRYHCKECGKVFSQSAGCIQHQR [L19C] | 3.12
40 | QKRYHCKECGKVFSQSAGTIQHQR [L19T] | 1.94
41 | QKRYHCKECGKVFSQSAGPIQHQR [L19P] | 2.54
42 | QKRYHCKECGKVFSQSAGQIQHQR [L19Q] | 2.45
43 | QKRYHCKECGKVFSQSAGGIQHQR [L19G] | 2.37
44 | QKRYHCKECGKVFSQSAGMIQHQR [L19M] | 2.35
45 | QKRYHCKECGKVFSQSAGNIQHQR [L19N] | 2.56
46 | QKRYHCKECGKVFSQSAGRIQHQR [L19R] | 2.55
47 | QKRYHCKECGKVFSQSAGVIQHQR [L19V] | 2.12
48 | QKRYHCKECGKVFSQSAGHIQHQR [L19H] | 2.58

Row | Variant | protein stability index
49 | QKRYHCKECGKVFSQSAGEIQHQR [L19E] | 2.31
50 | QKRYHCKECGKVFSQSAGIIQHQR [L19I] | 2.2
51 | QKRYHCKECGKVFSQSAGDIQHQR [L19D] | 2.35
52 | QKRYHCKECGKVFSQSAGSIQHQR [L19S] | 1.97
53 | QKRYHCKECGKVFSQSAGWIQHQR [L19W] | 2.41
54 | QKRYHCKECGKVFSQSAGAIQHQR [L19A] | 2.45
55 | QKRYHCKECGKVFSQSAGFIQHQR [L19F] | 2.43
56 | QKRYHCKECGKVFSQSAGKIQHQR [L19K] | 2.34
57 | QKRYHCKECGKVFSQSGGLIQHQR [A17G] | 2.54
58 | QKRYHCKECGKVFSQSNGLIQHQR [A17N] | 3.05
59 | QKRYHCKECGKVFSQSYGLIQHQR [A17Y] | 1.94
60 | QKRYHCKECGKVFSQSIGLIQHQR [A17I] | 2.28
61 | QKRYHCKECGKVFSQSQGLIQHQR [A17Q] | 2.76
62 | QKRYHCKECGKVFSQSVGLIQHQR [A17V] | 2.48
63 | QKRYHCKECGKVFSQSPGLIQHQR [A17P] | 2.02
64 | QKRYHCKECGKVFSQSEGLIQHQR [A17E] | 3.51
65 | QKRYHCKECGKVFSQSKGLIQHQR [A17K] | 3.09
66 | QKRYHCKECGKVFSQSSGLIQHQR [A17S] | 3.02
67 | QKRYHCKECGKVFSQSLGLIQHQR [A17L] | 2.22
68 | QKRYHCKECGKVFSQSRGLIQHQR [A17R] | 3.21
69 | QKRYHCKECGKVFSQSCGLIQHQR [A17C] | 2.45
70 | QKRYHCKECGKVFSQSDGLIQHQR [A17D] | 3.42
71 | QKRYHCKECGKVFSQSMGLIQHQR [A17M] | 1.82
72 | QKRYHCKECGKVFSQSTGLIQHQR [A17T] | 2.46

Row | Variant | protein stability index
73 | QKRYHCKECGKVFSQSHGLIQHQR [A17H] | 2.66
74 | QKRYHCKECGKVFSQSFGLIQHQR [A17F] | 2.27
75 | QKRYHCKECGKVFSQSWGLIQHQR [A17W] | 2.86
76 | QKRYHCKECGIVFSQSAGLIQHQR [K11I] | 2.32
77 | QKRYHCKECGPVFSQSAGLIQHQR [K11P] | 2.12
78 | QKRYHCKECGEVFSQSAGLIQHQR [K11E] | 3.1
79 | QKRYHCKECGCVFSQSAGLIQHQR [K11C] | 2.3
80 | QKRYHCKECGMVFSQSAGLIQHQR [K11M] | 3.23
81 | QKRYHCKECGVVFSQSAGLIQHQR [K11V] | 2.18
82 | QKRYHCKECGTVFSQSAGLIQHQR [K11T] | 2.64
83 | QKRYHCKECGYVFSQSAGLIQHQR [K11Y] | 1.7
84 | QKRYHCKECGLVFSQSAGLIQHQR [K11L] | 2.47
85 | QKRYHCKECGRVFSQSAGLIQHQR [K11R] | 2.01
86 | QKRYHCKECGWVFSQSAGLIQHQR [K11W] | 2.32
87 | QKRYHCKECGAVFSQSAGLIQHQR [K11A] | 3.19
88 | QKRYHCKECGGVFSQSAGLIQHQR [K11G] | 1.83
89 | QKRYHCKECGNVFSQSAGLIQHQR [K11N] | 1.66
90 | QKRYHCKECGHVFSQSAGLIQHQR [K11H] | 2.34
91 | QKRYHCKECGDVFSQSAGLIQHQR [K11D] | 1.88
92 | QKRYHCKECGQVFSQSAGLIQHQR [K11Q] | 3.04
93 | QKRYHCKECGFVFSQSAGLIQHQR [K11F] | 1.82
94 | QKRYHCKECGSVFSQSAGLIQHQR [K11S] | 2.37
